Reference: patent US20090099029A1, “Methods and substrates for conducting assays” (Invitrogen Corporation, priority 2005, published 2009)

These molecules were tested on kinases of Table 6 on Myelin Basic Protein (MBP) (assay: Kinase assay using MBP substrate, ProQ Diamond stain (Table 6)). Details: kinase printed on MBP-coated slide; 20 uM ATP, 30° C.; ProQ Diamond Microarray Stain; graded Strong/Weak/Negative.
Type: biochemical
Outline: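 Reactions ran at 30° C. with 20 uM ATP, 4 mM MgCl2 and 5% DMSO in HEPES pH 7.5, inhibitor added or omitted. Kinases had been arrayed onto slide-bound dephosphorylated bovine MBP; phospho-signal read after ProQ Diamond staining.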

Row | Molecule | MBP Kinase Activity
1 | MUSK (protein, left off: a dimerising Fc or GST) CCRRRKQWKNKKRESAAVTLTTLPSELLLDRLHPNPMYQRMPLLLNPKLLSLEYPRNNIEYVRDIGEGAFGRVFQARAPGLLPYEPFTMVAVKMLKEEASADMQADFQREAALMAEFDNPNIVKLLGVCAVGKPMCLLFEYMAYGDLNEFLRSMSPHTVCSLSHSDLSMRAQVSSPGPPPLSCAEQLCIARQVAAGMAYLSERKFVHRDLATRNCLVGENMVVKIADFGLSRNIYSADYYKANENDAIPIRWMPPESIFYNRYTTESDVWAYGVVLWEIFSYGLQPYYGMAHEEVIYYVRDGNILSCPENCPVELYNLMRLCWSKLPADRPSFTSIHRILERMCERAEGTVSV | Negative
2 | MERTK (protein, left off: a dimerising Fc or GST) KRVQETKFGNAFTEEDSELVVNYIAKKSFCRRAIELTLHSLGVSEELQNKLEDVVIDRNLLILGKILGEGEFGSVMEGNLKQEDGTSLKVAVKTMKLDNSSQREIEEFLSEAACMKDFSHPNVIRLLGVCIEMSSQGIPKPMVILPFMKYGDLHTYLLYSRLETGPKHIPLQTLLKFMVDIALGMEYLSNRNFLHRDLAARNCMLRDDMTVCVADFGLSKKIYSGDYYRQGRIAKMPVKWIAIESLADRVYTSKSDVWAFGVTMWEIATRGMTPYPGVQNHEMYDYLLHGHRLKQPEDCLDELYEIMYSCWRTDPLDRPTFSVLRLQLEKLLESLPDVRNQADVIYVNTQLLESSEGLAQGSTLAPLDLNIDPDSIIASCTPRAAISVVTAEVHDSKPHEGRYILNGGSEEWEDLTSAPSAAVTAEKNSVLPGERLVRNGVSWSHSSMLPLGSSLPDELLFADDSSEGSEVLM | Strong
3 | MET (protein, left off: small tags and cut ends) KKRKQIKDLGSELVRYDARVHTPHLDRLVSARSVSPTTEMVSNESVDYRATFPEDQFPNSSQNGSCRQVQYPLTDMSPILTSGDSDISSPLLQNTVHIDLSALNPELVQAVQHVVIGPSSLIVHFNEVIGRGHFGCVYHGTLLDNDGKKIHCAVKSLNRITDIGEVSQFLTEGIIMKDFSHPNVLSLLGICLRSEGSPLVVLPYMKHGDLRNFIRNETHNPTVKDLIGFGLQVAKGMKYLASKKFVHRDLAARNCMLDEKFTVKVADFGLARDMYDKEYYSVHNKTGAKLPVKWMALESLQTQKFTTKSDVWSFGVLLWELMTRGAPPYPDVNTFDITVYLLQGRRLLQPEYCPDPLYEVMLKCWHPKAEMRPSFSELVSRISAIFSTFIGEHYVHVNATYVNVKCVAPYPSLLSSEDNADDEVDTRPASFWETS | Strong
4 | PDGFRA (protein, left off: a dimerising Fc or GST) KQKPRYEIRWRVIESISPDGHEYIYVDPMQLPYDSRWEFPRDGLVLGRVLGSGAFGKVVEGTAYGLSRSQPVMKVAVKMLKPTARSSEKQALMSELKIMTHLGPHLNIVNLLGACTKSGPIYIITEYCFYGDLVNYLHKNRDSFLSHHPEKPKKELDIFGLNPADESTRSYVILSFENNGDYMDMKQADTTQYVPMLERKEVSKYSDIQRSLYDRPASYKKKSMLDSEVKNLLSDDNSEGLTLLDLLSFTYQVARGMEFLASKNCVHRDLAARNVLLAQGKIVKICDFGLARDIMHDSNYVSKGSTFLPVKWMAPESIFDNLYTTLSDVWSYGILLWEIFSLGGTPYPGMMVDSTFYNKIKSGYRMAKPDHATSEVYEIMVKCWNSEPEKRPSFYHLSEIVENLLPGQYKKSYEKIHLDFLKSDHPAVARMRVDSDNAYIGVTYKNEEDKLKDWEGGLDEQRLSADSGYIIPLPDIDPVPEEEDLGKRNRHSSQTSEESAIETGSSSSTFIKREDETIEDIDMMDDIGIDSSDLVEDSFL | Strong
5 | PDGFRA, T674I (protein, left off: a dimerising Fc or GST) KQKPRYEIRWRVIESISPDGHEYIYVDPMQLPYDSRWEFPRDGLVLGRVLGSGAFGKVVEGTAYGLSRSQPVMKVAVKMLKPTARSSEKQALMSELKIMTHLGPHLNIVNLLGACTKSGPIYIIIEYCFYGDLVNYLHKNRDSFLSHHPEKPKKELDIFGLNPADESTRSYVILSFENNGDYMDMKQADTTQYVPMLERKEVSKYSDIQRSLYDRPASYKKKSMLDSEVKNLLSDDNSEGLTLLDLLSFTYQVARGMEFLASKNCVHRDLAARNVLLAQGKIVKICDFGLARDIMHDSNYVSKGSTFLPVKWMAPESIFDNLYTTLSDVWSYGILLWEIFSLGGTPYPGMMVDSTFYNKIKSGYRMAKPDHATSEVYEIMVKCWNSEPEKRPSFYHLSEIVENLLPGQYKKSYEKIHLDFLKSDHPAVARMRVDSDNAYIGVTYKNEEDKLKDWEGGLDEQRLSADSGYIIPLPDIDPVPEEEDLGKRNRHSSQTSEESAIETGSSSSTFIKREDETIEDIDMMDDIGIDSSDLVEDSFL | Negative
6 | KIT (protein, left off: small tags and cut ends) TYKYLQKPMYEVQWKVVEEINGNNYVYIDPTQLPYDHKWEFPRNRLSFGKTLGAGAFGKVVEATAYGLIKSDAAMTVAVKMLKPSAHLTEREALMSELKVLSYLGNHMNIVNLLGACTIGGPTLVITEYCCYGDLLNFLRRKRDSFICSKQEDHAEAALYKNLLHSKESSCSDSTNEYMDMKPGVSYVVPTKADKRRSVRIGSYIERDVTPAIMEDDELALDLEDLLSFSYQVAKGMAFLASKNCIHRDLAARNILLTHGRITKICDFGLARDIKNDSNYVVKGNARLPVKWMAPESIFNCVYTFESDVWSYGIFLWELFSLGSSPYPGMPVDSKFYKMIKEGFRMLSPEHAPAEMYDIMKTCWDADPLKRPTFKQIVQLIEKQISESTNHIYSNLANCSPNRQKPVVDHSVRINSVGSTASSSQPLLVHDDV | Negative
7 | RET (protein, left off: a dimerising Fc or GST) HCYHKFAHKPPISSAEMTFRRPAQAFPVSYSSSGARRPSLDSMENQVSVDAFKILEDPKWEFPRKNLVLGKTLGEGEFGKVVKATAFHLKGRAGYTTVAVKMLKENASPSELRDLLSEFNVLKQVNHPHVIKLYGACSQDGPLLLIVEYAKYGSLRGFLRESRKVGPGYLGSGGSRNSSSLDHPDERALTMGDLISFAWQISQGMQYLAEMKLVHRDLAARNILVAEGRKMKISDFGLSRDVYEEDSYVKRSQGRIPVKWMAIESLFDHIYTTQSDVWSFGVLLWEIVTLGGNPYPGIPPERLFNLLKTGHRMERPDNCSEEMYRLMLQCWKQEPDKRPVFADISKDLEKMMVKRRDYLDLAASTPSDSLIYDDGLSEEETPLVDCNNAPLPRALPSTWIENKLYGMSDPNWPGESPVPLTRADGTNTGFPRYPNDSVYANWMLSPSAAKLMDTFDS | Strong
8 | ROS1 (protein, left off: a dimerising Fc or GST) HRRLKNQKSAKEGVTVLINEDKELAELRGLAAGVGLANACYAIHTLPTQEEIENLPAFPREKLTLRLLLGSGAFGEVYEGTAVDILGVGSGEIKVAVKTLKKGSTDQEKIEFLKEAHLMSKFNHPNILKQLGVCLLNEPQYIILELMEGGDLLTYLRKARMATFYGPLLTLVDLVDLCVDISKGCVYLERMHFIHRDLAARNCLVSVKDYTSPRIVKIGDFGLARDIYKNDYYRKRGEGLLPVRWMAPESLMDGIFTTQSDVWSFGILIWEILTLGHQPYPAHSNLDVLNYVQTGGRLEPPRNCPDDLWNLMTQCWAQEPDQRPTFHRIQDQLQLFRNFFLNSIYKSRDEANNSGVINESFEGEDGDVICLNSDDIMPVALMETKNREGLNYMVLATECGQGEEKSEGPLGSQESESCGLRKEEKEPHADKDFCQEKQVAYCPSGKPEGLNYACLTHSGYGDGSD | Strong
9 | PDGFRB (protein, left off: small tags and cut ends) MLWQKKPRYEIRWKVIESVSSDGHEYIYVDPMQLPYDSTWELPRDQLVLGRTLGSGAFGQVVEATAHGLSHSQATMKVAVKMLKSTARSSEKQALMSELKIMSHLGPHLNVVNLLGACTKGGPIYIITEYCRYGDLVDYLHRNKHTFLQHHSDKRRPPSAELYSNALPVGLPLPSHVSLTGESDGGYMDMSKDESVDYVPMLDMKGDVKYADIESSNYMAPYDNYVPSAPERTCRATLINESPVLSYMDLVGFSYQVANGMEFLASKNCVHRDLAARNVLICEGKLVKICDFGLARDIMRDSNYISKGSTFLPLKWMAPESIFNSLYTTLSDVWSFGILLWEIFTLGGTPYPELPMNEQFYNAIKRGYRMAQPAHASDEIYEIMQKCWEEKFEIRPPFSQLVLLLERLLGEGYKKKYQQVDEEFLRSDHPAILRSQARLPGFHGLRSPLDTSSVLYTAVQPNEGDNDYIIPLPDPKPEVADEGPLEGSPSLASSTLNEVNTSSTISCDSPLEPQDEPEPEPQLELQVEPEPELEQLPDSGCPAPRAEAEDSFL | Strong
10 | TYRO3 (protein, left off: a dimerising Fc or GST) LRKRRKETRFGQAFDSVMARGEPAVHFRAARSFNRERPERIEATLDSLGISDELKEKLEDVLIPEQQFTLGRMLGKGEFGSVREAQLKQEDGSFVKVAVKMLKADIIASSDIEEFLREAACMKEFDHPHVAKLVGVSLRSRAKGRLPIPMVILPFMKHGDLHAFLLASRIGENPFNLPLQTLIRFMVDIACGMEYLSSRNFIHRDLAARNCMLAEDMTVCVADFGLSRKIYSGDYYRQGCASKLPVKWLALESLADNLYTVQSDVWAFGVTMWEIMTRGQTPYAGIENAEIYNYLIGGNRLKQPPECMEDVYDLMYQCWSADPKQRPSFTCLRMELENILGQLSVLSASQDPLYINIERAEEPTAGGSLELPGRDQPYSGAGDGSGMGAVGGTPSDCRYILTPGGLAEQPGQAEHQPESPLNETQRLLLLQQGLLPHSSC | Strong
